In this data set the test system is K562 CRISPRi cells. As to the kind of experiment: Constant region variant library pooled growth screen, K562. The data set is classed as cell-based, human. Particulars: sgRNA constant region variants. The source says:
We calculated relative activities for each targeting sequence:constant region pair by normalizing its phenotype to that of the targeting sequence paired with the unmodified constant region, identifying 409 constant region variants that on average conferred intermediate activity (0.1-0.9, FIG. 5B). Ten variants selected for individual evaluation also mediated intermediate levels of mRNA knockdown (FIG. 6B). Mapping the activities of constant region variants with single base substitutions onto the structure recapitulated known relationships between constant region structure and function (FIG. 5C).
The sequences in the library of modified constant regions were derived from the sgRNA (F+E) optimized sequence (23) modified to include a BlpI site (15). Each modified constant region was paired with 36 sgRNA targeting sequences (3 sgRNAs targeting each of 10 essential genes and six non-targeting negative control sgRNAs). The cloning strategy (described below) allowed the mutation of most positions in the sgRNA constant region. A variety of modifications were made, including substitutions of all single bases not in the BlpI restriction site (which is used for cloning), double substitutions including all substitutions at base-paired position pairs not before or in the BlpI site, and a variety of triple, quadruple, and sextuple substitutions, including base-pair-preserving substitutions at adjacent base-pairs.
The library was ordered and cloned in two parts. One part consisted of ˜100 modifications to the eight bases upstream of the BlpI restriction site. Constant region variants with mutations in this section were paired with each of the 36 targeting sequences, ordered as a pooled oligonucleotide library (Twist Biosciences), and cloned into pCRISPRia-v2 as described above. The second part consisted of ˜900 modifications to the 71 bases downstream of the BlpI restriction site. This part was cloned in two steps. First, all 36 targeting sequences were individually cloned into pCRISPRia-v2 as described above. The vectors were then pooled at an equimolar ratio and digested with BlpI (NEB) and XhoI (NEB). The modified constant region variants were ordered as a pooled oligonucleotide library (Twist Biosciences), PCR amplified with Phusion polymerase (NEB), digested with BlpI (NEB) and XhoI (NEB), and ligated into the digested vector pool, in a manner identical to previously published protocols and as described above, except for the different restriction enzymes.
Screens with the compact mismatched sgRNA library and the constant region library were conducted largely as described above, with smaller modifications during the screening procedure and an updated sequencing library preparation protocol. Briefly, the libraries were transduced in duplicate into K562 CRISPRi (both libraries) or HeLa CRISPRi cells (compact mismatched sgRNA library) as described above. K562 replicates were maintained separately in 0.15 to 0.3 L of RPMI-1640 in 0.3 L spinner flasks for the course of the screen. HeLa replicates were maintained in sets of ten 15-cm plates. Cells were selected with puromycin as described above (K562: 1 day of 0.75 μg/mL and 1 day of 0.85 μg/mL; HeLa: 2 days of 0.8 μg/mL and 1 day of 1 μg/mL). The remainder of the screen was carried out at >1000× library coverage (K562 compact mismatched sgRNA library: >2000×; HeLa compact mismatched sgRNA library: >1000×; K562 constant region library: >2000×). Multiple samples were harvested after 4 to 8 days of growth. For the drug screen, 10 μM lovastatin (ApexBio) or an equivalent volume of DMSO (vehicle) was added to flasks at t=0, and 3 days later cells were pelleted and re-suspended in fresh medium. Lovastatin (12 μM) or DMSO was again added after 5 and 9 days of growth, with media exchanges 3 days after drug supplementation. Multiple samples were harvested after 4 to 8 days for the K562 and HeLa growth screens. […]

The mark [1] stands for this setting: activity relative to the un-modified constant region cr995.
[2] abbreviates: activity relative to the original, un-modified constant region cr995.

Where a chain is given by its changes, count along the chain named.

B1: cr719 (nucleic acid)
guide: GTTTAAGAGCTAAGCTGGAAACAGCATAGCAAGTTTAAATAAGGCTAGTCCGTTATCAACTTGAAAAAGTGGCACCGAGTCGGTGAT
modifications: listed as DNA, chemistry not fully specified
Under setting [1], B1 displayed a Mean relative activity of 0.9381.

B2: cr116 (nucleic acid)
guide: B1 guide with T61G, A68C, A86C
modifications: listed as DNA, chemistry not fully specified
Under setting [2], B2 showed a Mean relative activity of 1.064.

B3: cr364 (nucleic acid)
guide: B1 guide with T61A, A86C
modifications: listed as DNA, chemistry not fully specified
For B3, under setting [1], the Mean relative activity is recorded as 0.9193.

B4: cr838 (nucleic acid)
guide: B1 guide with T46C, A86C
modifications: listed as DNA, chemistry not fully specified
For B4, the Mean relative activity under setting [1] is 0.9187.

B5: cr614 (nucleic acid)
guide: B1 guide with G18A, A86C
modifications: listed as DNA, chemistry not fully specified
Under setting [1], B5 gave a Mean relative activity of 0.927.

B6: cr693 (nucleic acid)
guide: B1 guide with A74T, G77A, C81T, T84A, A86C
modifications: listed as DNA, chemistry not fully specified
Molecule B6 gave a Mean relative activity under setting [1] of 0.9369.

B7: cr132 (nucleic acid)
guide: B1 guide with A65G, C76T, G82A, A86C
modifications: listed as DNA, chemistry not fully specified
As for B7, the Mean relative activity under setting [1] stood at 0.9196.

B8: cr371 (nucleic acid)
guide: B1 guide with T54C, T56G, G79C, A86C
modifications: listed as DNA, chemistry not fully specified
Under setting [1], B8 yielded a Mean relative activity of 0.9355.

B9: cr546 (nucleic acid)
guide: B1 guide with C60A, A65G, G69T, A86C
modifications: listed as DNA, chemistry not fully specified
For the molecule B9, the Mean relative activity under setting [1] turned out to be 0.9326.

B10: cr953 (nucleic acid)
guide: B1 guide with A78C, A86C
modifications: listed as DNA, chemistry not fully specified
As to B10, the Mean relative activity under setting [1] stood at 0.9337.

B11: cr375 (nucleic acid)
guide: B1 guide with G17T, A86C
modifications: listed as DNA, chemistry not fully specified
B11 came in with a Mean relative activity under setting [1] of 0.9294.

B12: cr291 (nucleic acid)
guide: B1 guide with G72C, C75T, G83A, A86G
modifications: listed as DNA, chemistry not fully specified
In the case of B12, under setting [1], the Mean relative activity stood at 0.9321.

B13: cr630 (nucleic acid)
guide: B1 guide with A55G, T56C, G79C, A86C
modifications: listed as DNA, chemistry not fully specified
Turning to B13, the Mean relative activity under setting [1] came out at 0.9325.

B14: cr752 (nucleic acid)
guide: B1 guide with A65T, A86C, T87G
modifications: listed as DNA, chemistry not fully specified
The molecule B14 returned a Mean relative activity under setting [1] of 0.9196.

B15: cr577 (nucleic acid)
guide: B1 guide with A28G, A42G, A55C, A86C
modifications: listed as DNA, chemistry not fully specified
For B15, the Mean relative activity under setting [1] was 0.9309.

B16: cr576 (nucleic acid)
guide: B1 guide with T16C, A86C
modifications: listed as DNA, chemistry not fully specified
Take B16: the Mean relative activity under setting [1] was 0.935.

B17: cr974 (nucleic acid)
guide: B1 guide with A65G, A78T, A86C
modifications: listed as DNA, chemistry not fully specified
B17 yielded a Mean relative activity under setting [1] of 0.9235.

B18: cr567 (nucleic acid)
guide: B1 guide with A64C, A65G, A86C
modifications: listed as DNA, chemistry not fully specified
In turn, B18 returned a Mean relative activity under setting [2] of 1.06.

B19: cr822 (nucleic acid)
guide: B1 guide with T49A, A66C, A86C
modifications: listed as DNA, chemistry not fully specified
With B19, the Mean relative activity under setting [1] stood at 0.9333.

B20: cr421 (nucleic acid)
guide: B1 guide with A68C, A86C
modifications: listed as DNA, chemistry not fully specified
The molecule B20 had a Mean relative activity under setting [1] of 0.9381.

B21: cr388 (nucleic acid)
guide: B1 guide with G72T, C73A, G85T
modifications: listed as DNA, chemistry not fully specified
B21: the Mean relative activity under setting [1] came out at 0.9188.

B22: cr361 (nucleic acid)
guide: B1 guide with G17C, A86C
modifications: listed as DNA, chemistry not fully specified
Regarding B22, the Mean relative activity under setting [1] worked out at 0.9312.

B23: cr597 (nucleic acid)
guide: B1 guide with A59C, T70G, C73G, G77T, C81A, G85C, A86C
modifications: listed as DNA, chemistry not fully specified
With B23, the Mean relative activity under setting [1] is 0.9187.

B24: cr243 (nucleic acid)
guide: B1 guide with T62C, A67G, A74C, C76T, G82A, T84G, A86C
modifications: listed as DNA, chemistry not fully specified
B24 registered a Mean relative activity under setting [1] of 0.9319.

B25: cr450 (nucleic acid)
guide: B1 guide with A65G, A74G, T84C, A86C
modifications: listed as DNA, chemistry not fully specified
Under setting [2], B25 displayed a Mean relative activity of 1.064.

B26: cr823 (nucleic acid)
guide: B1 guide with T62A, A67T, C76T, G82A, A86C
modifications: listed as DNA, chemistry not fully specified
Regarding B26, the Mean relative activity under setting [1] came out at 0.936.

B27: cr525 (nucleic acid)
guide: B1 guide with A59C, T70G, C76G, G82C, A86C
modifications: listed as DNA, chemistry not fully specified
In the case of B27, the Mean relative activity under setting [1] was 0.9205.

B28: cr769 (nucleic acid)
guide: B1 guide with A32G, T53G, T54A, A86C
modifications: listed as DNA, chemistry not fully specified
In turn, B28 displayed a Mean relative activity under setting [1] of 0.9268.

B29: cr780 (nucleic acid)
guide: B1 guide with T62G, A67C, G77T, C81A, A86C
modifications: listed as DNA, chemistry not fully specified
In the case of B29, the Mean relative activity under setting [1] is recorded as 0.9287.

B30: cr304 (nucleic acid)
guide: B1 guide with C60T, A65G, G69A, A86C
modifications: listed as DNA, chemistry not fully specified
Under setting [1], B30 registered a Mean relative activity of 0.9285.

The record behind these values is patent US20220259593A1, “CONTROL OF MAMMALIAN GENE DOSAGE USING CRISPR” (The Regents of the University of California, priority 2019, published 2022).
